How the values were obtained:
[1] = system: Stat 1 (Tyr 701), Stat 3 (Tyr 705); assay: Western blot of phosphorylated Stat 1, Stat 3 and total Stat 1 in FRTL-5 cells; type: cell-based, rat
Description: SDS-polyacrylamide gel electrophoresis and Western blotting—Transfected FRTL-5 cells or FRTL-5 cells treated with KIFN (100 U/ml protein) which had been grown in 100 mm dishes (Nalge Nunc International), were placed on ice before harvesting, washed with ice-cold Dulbecco's PBS (DPBS), released by gentle scraping with a rubber policeman, and collected by low-speed centrifugation at 833×g for 10 min in a Sorvall table-top centrifuge (rotor H-1000, Dupont Company, Wilmington Del.). After a second washing in DPBS, cells were resuspended in cold lysis buffer [50 mM HEPES pH 7.0,2 mM MgCl2; 250 mM NaCl; 0.1 mM EDTA; 0.1 mM EGTA; 1 mM DTT; 2 mM Na3VO4; 10 mM Na4P2O7; 10 mM NaF; 0.1% NP-40; 0.5 mM p-amidinophenyl methanesulfonyl fluoride hydrochloride (p-APMSF) plus a protease inhibitor cocktail ([…]; 2.5 mg/ml of antipain; 2.5 mg/ml of chymostatin; 0.25 mg/ml leupeptin; 0.25 mg/ml antipain]. The cells were allowed to lyse on ice for 60 min, after which they were vortexed vigorously and centrifuged at 4° C. and at 12,000 rpm in a microcentrifuge for 10 min. The supernatant was collected and frozen in aliquots at −70° C. […] The membrane was again washed and protein detected by incubation for 1 min with ECL detection reagent (Amersham, Arlington Heights, Ill.) followed by exposure to X-ray film. […]

[2] = system: MHC Class I, MHC Class II; assay: Northern analysis of MHC Class I and Class II RNA after infection or transfection of FRTL-5 cells; details: 5 Tg nucleic acid transfected (Lipofectamine Plus), HSV-2 infection or KIFN, Northern 48 hours after treatment
[3] = system: LMP2, TAP-1, invariant chain (Ii), HLA-DM, B7, CIITA, RFX5, IRF-1, PKR, IFN; assay: Northern analysis of genes responsible for antigen presentation in FRTL-5 cells; type: cell-based, rat
Description: In some experiments, cells were treated with 100 U/ml rat KIFN for the last 48 hours of culture.
Transfection—All procedures used 10 cm dishes and transfection with Lipofectamine Plus (GIBCO BRL, Gaithersburg, Md.). […] Transfections with Lipofectamine (GIBCO BRL, Gaithersburg, Md.), with DEAE dextran, or using electroporation, performed as in Example 1, yielded the same results.
Nucleic Acids—The following polynucleotides were used in these experiments, both made by Pharmacia Biotech, Piscataway, N.J.: poly(dI)/poly(dC) and poly(I)/poly(C). The same results were obtained, however, using sonicated salmon sperm DNA (Stratagene, La Jolla, Calif.), bacterial DNA or calf thymus DNA (Sigma, St. Louis, Mo.), and FRTL-5 cell genomic DNA. […] Viral DNA from Human Herpes Simplex virus and viral DNA oligonucleotides from HIV, HTLV-1, Foamy virus, and cytomegalic virus (CMV) as well as the plasmid vectors pcDNA3 and pRc/RSV, used with or without methylation, also duplicated the results with the ds synthetic polynucleotides.
The probe for rat CIITA is a cloned rat Type III CIITA cDNA fragment in pcDNA3 (K. Suzuki et al., manuscript in preparation). EcoRI is used to release a 4098 bp fragment as the probe.

[4] = system: rat 90K tumor-associated immunostimulator; assay: Northern analysis of 90K tumor-associated immunostimulator RNA in FRTL-5 cells; type: cell-based; details: 5 Tg nucleic acid or 100 U/ml KIFN, Northern after 48 hours
Text: 12: 19-33 (1998)). Filters were sequentially hybridized with the rat 90K, MHC Class I, MHC Class II, and GAPDH probes. […] The glyceraldehyde phosphate dehydrogenase (GAPDH) probe was cut from a pTRI-GAPDH-Rat template (Ambion, Tex.).

FRTL-5 rat thyroid cells = details: literature; cited from earlier work

B1: KIFN: K-interferon (gamma interferon, character lost), rat recombinant, 100 U/ml (protein, UniProt P01581 23-156, looked up)
Interferon gamma: QGTLIESLESLKNYFNSSSMDAMEGKSLLLDIWRNWQKDGNTKILESQIISFYLRLFEVLKDNQAISNNISVIESHLITNFFSNSKAKKDAFMSIAKFEVNNPQIQHKAVNELIRVIHQLSPESSLRKRKRSRC
In the case of B1, the “phosphorylation of STAT 1 and STAT 3” value ([1]; FRTL-5 cells, dsDNA within 6 hours of transfection) is reported as “significantly lower and more delayed in time”, the “total STAT 1 protein” value ([1]; readily measurable at 12 hours) is reported as “greater and more advanced in time” and the “MHC RNA levels / MHC expression (Class I and Class II)” value [2] is reported as “increases Class II more than Class I levels”. The “expression of genes responsible for antigen presentation” value ([3]; 5 Tg dsDNA or 100 U/ml KIFN, 3 to 72 hours) was “induced”, the “induction of CIITA, RFX5 and IRF-1” value ([3]; 100 U/ml KIFN) was “induced” and the “90K RNA levels” value [4] was “weaker”. The cell cycle progression (FRTL-5 rat thyroid cells) was “inhibits progression”.
